The assay concerns the target T1, ELFN1-myc (mouse) (UniProt Q8C8T7).
T1 sequence: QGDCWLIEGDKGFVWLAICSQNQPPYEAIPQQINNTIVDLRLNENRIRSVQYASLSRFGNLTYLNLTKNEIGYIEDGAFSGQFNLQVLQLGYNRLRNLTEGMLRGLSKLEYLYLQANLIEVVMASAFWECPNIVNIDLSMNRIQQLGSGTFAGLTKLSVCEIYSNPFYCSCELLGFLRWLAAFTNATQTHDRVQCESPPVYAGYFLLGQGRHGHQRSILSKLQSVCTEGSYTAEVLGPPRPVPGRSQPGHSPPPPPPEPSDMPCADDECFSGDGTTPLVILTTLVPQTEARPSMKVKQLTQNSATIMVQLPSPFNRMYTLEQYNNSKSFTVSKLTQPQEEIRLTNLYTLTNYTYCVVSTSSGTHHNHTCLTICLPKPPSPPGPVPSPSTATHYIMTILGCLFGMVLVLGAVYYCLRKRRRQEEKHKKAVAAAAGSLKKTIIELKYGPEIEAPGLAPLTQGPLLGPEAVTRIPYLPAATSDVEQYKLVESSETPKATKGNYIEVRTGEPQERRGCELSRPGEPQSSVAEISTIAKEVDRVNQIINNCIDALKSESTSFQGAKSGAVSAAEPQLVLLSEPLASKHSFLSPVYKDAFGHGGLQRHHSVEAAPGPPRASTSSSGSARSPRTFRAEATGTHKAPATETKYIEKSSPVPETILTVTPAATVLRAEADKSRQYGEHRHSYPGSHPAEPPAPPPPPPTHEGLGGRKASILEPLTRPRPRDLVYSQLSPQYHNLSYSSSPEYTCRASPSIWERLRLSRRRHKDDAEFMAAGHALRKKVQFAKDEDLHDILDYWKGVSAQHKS

B1: ELFN1Δ452-Venus (domain or fragment)
chain: QGDCWLIEGDKGFVWLAICSQNQPPYEAIPQQINNTIVDLRLNENRIRSVQYASLSRFGNLTYLNLTKNEIGYIEDGAFSGQFNLQVLQLGYNRLRNLTEGMLRGLSKLEYLYLQANLIEVVMASAFWECPNIVNIDLSMNRIQQLGSGTFAGLTKLSVCEIYSNPFYCSCELLGFLRWLAAFTNATQTHDRVQCESPPVYAGYFLLGQGRHGHQRSILSKLQSVCTEGSYTAEVLGPPRPVPGRSQPGHSPPPPPPEPSDMPCADDECFSGDGTTPLVILTTLVPQTEARPSMKVKQLTQNSATIMVQLPSPFNRMYTLEQYNNSKSFTVSKLTQPQEEIRLTNLYTLTNYTYCVVSTSSGTHHNHTCLTICLPKPPSPPGPVPSPSTATHYIMTILGCLFGMVLVLGAVYYCLRKRRRQEEKHKK
As for B1, the cell membrane enrichment of ELFN1Δ452-Venus (membrane against proximal cytosolic pixel intensity) with co-expression of ELFN1-myc (median 92.50% under control conditions) was determined as 129% and the percentage of cells with membrane enrichment of ELFN1Δ452-Venus when co-expressed with ELFN1-myc (0.000 without ELFN1-myc); live-cell confocal microscopy, HEK293 stood at 33.4%.

The values above are taken from paper PMC11758950.
